The results in this text go back to PMC4878814, “Mechanism of Human Nucleocytoplasmic Hexosaminidase D” (Biochemistry, 2016).

For data set [1], the target named is T1, hexosaminidase D (HexD) (Homo sapiens, UniProt Q8WVB3).
T1 construct: human HexD in pET30a vector, expressed in E. coli BL21(DE3)
T1 sequence (Q8WVB3 1-486): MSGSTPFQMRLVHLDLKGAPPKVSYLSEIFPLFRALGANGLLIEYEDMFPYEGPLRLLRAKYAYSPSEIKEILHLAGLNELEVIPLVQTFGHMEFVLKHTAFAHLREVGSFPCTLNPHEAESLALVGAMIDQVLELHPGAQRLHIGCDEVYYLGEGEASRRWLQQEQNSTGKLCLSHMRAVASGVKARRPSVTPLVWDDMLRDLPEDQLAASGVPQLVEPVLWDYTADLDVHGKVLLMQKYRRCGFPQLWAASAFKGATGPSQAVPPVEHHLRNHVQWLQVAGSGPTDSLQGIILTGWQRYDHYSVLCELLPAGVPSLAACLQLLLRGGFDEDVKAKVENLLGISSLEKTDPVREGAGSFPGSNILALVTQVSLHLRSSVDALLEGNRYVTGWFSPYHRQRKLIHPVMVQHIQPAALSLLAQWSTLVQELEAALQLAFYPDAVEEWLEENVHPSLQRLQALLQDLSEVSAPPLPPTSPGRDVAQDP
Kind of data set: inhibition of purified enzyme hydrolysis of PNP-GalNAc, absorbance, Lineweaver-Burk and nonlinear regression. Type of data set: biochemical.

Data set [2] addresses T2, murine HexD (Mus musculus, UniProt Q3U4H6).
T2 sequence (Q3U4H6 1-486): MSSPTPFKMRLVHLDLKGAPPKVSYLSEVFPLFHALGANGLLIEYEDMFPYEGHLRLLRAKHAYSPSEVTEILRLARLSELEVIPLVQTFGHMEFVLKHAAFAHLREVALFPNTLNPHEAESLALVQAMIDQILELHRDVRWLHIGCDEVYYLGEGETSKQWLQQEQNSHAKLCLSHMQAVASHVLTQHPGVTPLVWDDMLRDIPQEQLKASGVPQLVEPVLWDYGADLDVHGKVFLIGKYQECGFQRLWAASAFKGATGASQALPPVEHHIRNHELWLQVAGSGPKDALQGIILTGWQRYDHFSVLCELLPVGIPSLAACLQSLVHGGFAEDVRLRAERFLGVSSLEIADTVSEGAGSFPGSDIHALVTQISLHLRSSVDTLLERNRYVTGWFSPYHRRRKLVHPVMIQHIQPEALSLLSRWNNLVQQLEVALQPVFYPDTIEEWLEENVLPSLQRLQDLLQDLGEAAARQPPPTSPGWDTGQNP
Kind of data set: enzyme inhibition, preliminary studies (data not shown). Type of data set: biochemical.

Substrate in data set [3]: CC(=O)N[C@H]1[C@H](Oc2ccc([N+](=O)[O-])cc2)O[C@H](CO)[C@H](O)[C@@H]1O
Kind of data set: Michaelis-Menten kinetics of hydrolysis by purified enzyme (KM); hydrolysis also followed by 1H NMR. Particulars: active site; Asp148 polarizing residue, Glu149 general acid/base. Type of data set: biochemical, Homo sapiens.

Substrate in data set [4]: CC(=O)N[C@H]1[C@H](Oc2ccc([N+](=O)[O-])c(F)c2)O[C@H](CO)[C@@H](O)[C@@H]1O
Kind of data set: purified protein.

Substrate in data set [5]: CC(=O)N[C@H]1[C@H](Oc2ccc([N+](=O)[O-])c(F)c2)O[C@H](CO)[C@H](O)[C@@H]1O
Kind of data set: purified protein.

Substrate in data set [6]: CC(=O)N[C@H]1[C@H](Oc2ccc([N+](=O)[O-])cc2)O[C@H](CO)[C@@H](O)[C@@H]1O
Kind of data set: purified protein.

Substrate in data set [7]: O=C(CF)N[C@H]1[C@H](Oc2ccc([N+](=O)[O-])cc2)O[C@H](CO)[C@H](O)[C@@H]1O
Kind of data set: purified protein.

Substrate in data set [8]: O=C(N[C@H]1[C@H](Oc2ccc([N+](=O)[O-])cc2)O[C@H](CO)[C@H](O)[C@@H]1O)C(F)(F)F
Kind of data set: purified protein.

Substrate in data set [9]: O=C(N[C@H]1[C@H](Oc2ccc([N+](=O)[O-])cc2)O[C@H](CO)[C@H](O)[C@@H]1O)C(F)F
Kind of data set: purified protein.

For `CC1=N[C@@H]2[C@@H](O)[C@@H](O)[C@@H](CO)O[C@@H]2S1` [compound 4, Gal-NAG-thiazoline], the Ki is 420 nM in [1] and 520 nM in [2].

B1: hexosaminidase D (HexD) (Homo sapiens) (protein)
chain: T1 sequence (Q8WVB3 1-486)
notes: human HexD in pET30a vector, expressed in E. coli BL21(DE3)
Regarding B1, the Km is 72.1 ± 4.8 µM in [3]; 852 ± 54 µM in data set [4]; 172 ± 19 µM in data set [5]; 607 ± 53 µM in [6]; 533 ± 17 µM in data set [7]; 103 ± 27 µM in data set [8]. Further, the Km in [9] was 102 ± 16 µM. Also, the kcat came out at 1.32 ± 0.02 s⁻¹ in data set [3]; 1.54 ± 0.045 s⁻¹ in data set [4]; 2.03 ± 0.065 s⁻¹ in data set [5]; 0.507 ± 0.0148 s⁻¹ in data set [6]; 2.6 ± 0.0317 s⁻¹ in data set [7]; 0.042 ± 0.00283 s⁻¹ in data set [8]. In [9], the kcat was found to be 0.27 ± 0.0108 s⁻¹. Further, the kcat/Km in [3] is 18200 ± 1250 M⁻¹ s⁻¹; in data set [4] it was 1820 ± 127 M⁻¹ s⁻¹; in data set [5], 11800 ± 1350 M⁻¹ s⁻¹; in data set [6], 835 ± 76.7 M⁻¹ s⁻¹; in data set [7], 4980 ± 183 M⁻¹ s⁻¹; in [8] it was 408 ± 108 M⁻¹ s⁻¹. Also, in [9], the specificity constant (kcat/Km) turned out to be 2650 ± 417 M⁻¹ s⁻¹.

Broadly, the Ki is the equilibrium dissociation constant of an inhibitor or competing ligand from its target. High values mean weaker binding, low ones tighter binding. In general, Km refers to the substrate concentration at which the rate is half of its maximum. One may read the kcat as the number of substrate molecules converted per active site and unit of time at saturation. For orientation: kcat/Km means the turnover number divided by the Michaelis constant.
